# Measured values published in patent publication US20250145714A1 (GENUV, published 2025).
# Tests used:
# [1] = target: IL-2Rβγ-His (Acrobiosystems) (UniProt P14784); test: ELISA on plate-coated IL-2Rβγ-His, OD450 against antibody concentration (M)
# [2] = target: IL-2Rα-His (Acrobiosystems) (UniProt P01589); test: ELISA on plate-coated IL-2Rα-His, OD450 against antibody concentration (M)
# [3] = target: T1, Human PD-1 (Acrobiosystems, Cat #PD1-H5221) (human, UniProt Q15116 25-167); test: SPR Biacore 8K, human PD-1 amine-coupled on CM5, 1:1 model, pH 7.4
# T1 construct: Bought protein, immobilised on a CM5 chip; also called hPD-1
# Procedure: (§1) Human PD-1 (Acrobiosystems, Cat #PD1-H5221) at a concentration of 1 μg/ml was immobilized on a CM5 chip (Cytiva) using an amine coupling kit (Cytiva) according to the manufacturer's instructions. […] After each experiment in each concentration cycle, the chip was regenerated with glycine at pH 1.5. At this time, the running buffer used was a pH 7.4 or pH 6.0 HBS-EP+ buffer (0.1 M HEPES, 1.5 M NaCl, 0.03 M EDTA and 0.5% v/v Surfactant P20), and the experimental proteins were diluted in the running buffer.
# (§2) The analysis was performed using the 1:1 binding model in Biacore evaluation software version 3.0, and the results of the kinetic constants (ka and kd) and affinity (KD) values are shown in Table 3 below.
# [4] = target: T1, Human PD-1 (Acrobiosystems, Cat …); test: SPR Biacore 8K, human PD-1 amine-coupled on CM5, 1:1 model, pH 6.0
# Procedure: as §1, §2
# T1 sequence (Q15116 25-167 limits assumed): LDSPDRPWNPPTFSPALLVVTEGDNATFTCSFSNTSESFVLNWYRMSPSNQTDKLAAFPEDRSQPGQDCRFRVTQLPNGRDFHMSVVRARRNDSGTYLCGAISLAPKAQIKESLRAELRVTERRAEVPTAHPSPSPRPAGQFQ
# Chain of IL-2Rα-His (Acrobiosystems) (P01589 22-213): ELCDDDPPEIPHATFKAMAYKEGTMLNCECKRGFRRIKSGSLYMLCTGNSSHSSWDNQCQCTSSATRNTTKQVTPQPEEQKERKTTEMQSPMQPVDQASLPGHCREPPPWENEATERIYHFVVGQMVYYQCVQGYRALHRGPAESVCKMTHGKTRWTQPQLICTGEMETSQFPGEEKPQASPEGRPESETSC
# Chain of IL-2Rβγ-His (Acrobiosystems) (P14784 27-239 limits assumed, chain 1 of 2): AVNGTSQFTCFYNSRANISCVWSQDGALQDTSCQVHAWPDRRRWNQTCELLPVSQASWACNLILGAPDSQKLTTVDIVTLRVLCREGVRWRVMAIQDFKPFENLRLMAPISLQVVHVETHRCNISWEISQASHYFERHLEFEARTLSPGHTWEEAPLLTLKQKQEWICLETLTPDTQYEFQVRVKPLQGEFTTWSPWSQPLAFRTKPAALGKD
# Chain of IL-2Rβγ-His (Acrobiosystems) (P31785 23-262 limits assumed, chain 2 of 2, further chain): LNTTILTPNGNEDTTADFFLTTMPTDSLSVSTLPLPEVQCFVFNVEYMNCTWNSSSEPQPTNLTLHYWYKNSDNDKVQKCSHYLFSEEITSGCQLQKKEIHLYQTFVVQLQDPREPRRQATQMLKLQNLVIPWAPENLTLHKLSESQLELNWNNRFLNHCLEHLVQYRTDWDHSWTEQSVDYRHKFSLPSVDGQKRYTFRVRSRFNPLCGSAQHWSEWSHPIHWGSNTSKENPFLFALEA
Molecule,EC50 [1],EC50 [2],Kd [3],koff [3],kon [3],Kd [4],koff [4],kon [4]
Fc-IL2 (control antibody; prepared in-house) (Fc fusion),7990 pM,325 pM,,,,,,
"1G1-h70 (antibody, V domains shown, also called humanized anti-PD-1 antibody 1G1-h70; anti-PD-1 antibody) VH: QVQLVQSGAEVKKPGASVKVSCKASGYTFTGYWMHWVRQAPGQGLEWIGMIHPNSDTTTYNEKFKNRVTMTRDTSISTAYMELSRLRSDDTAVYYCAGTDQAAWFAFWGQGTTVTVSS VL: DIVMTQTPLSLSVTPGQPASISCRSSQNIVHSQGDTYLEWYLQKPGQSPQLLIYKVSKRFSGVPDRFSGSGSGTDFTLKISRVEAEDVGVYYCFQGSHVPWTFGGGTKVEIK",,,237 pM,3.51e-05 s⁻¹,148000 M⁻¹ s⁻¹,48.1 pM,1.38e-05 s⁻¹,286000 M⁻¹ s⁻¹
